Reference: paper PMC7904446 (Cell Host & Microbe, 2021)
Positions count from the first letter of the chain named.

B1: ZDY28 Fab (Fab, V domains shown)
VH: EVQLVQSGGGVVQPGRSLRLSCAASGFTFSSYGMHWVRQAPGKGLEWVAVISYDGSNKYYADSVKGRFTISRDNSKNTLYLQMNSLRAEDTAVYYCASRSTVVPAAIFAFDIWGQGTMVTVSS
VL: not shown
B2: ZDY49 Fab (Fab, V domains shown)
VH: B1 VH with Q6E
VL: not shown
B3: ZDY95 Fab (Fab, V domains shown)
VH: B1 VH
VL: not shown
B4: ZDY20 Fab (Fab, V domains shown)
VH: EVQLVETGGGLIQPGGSLRLSCAASGITVSSNYMSWVRQAPGKGLEWVSVIYSGGSTYYADSVKGRFTISRDNSKNTLYLQMNSLRAEDTAVYYCAREGLGDGYNAIAGLGFDLWGRGTLVTVSS
VL: DIVMTQSPSSLSASVGDSVTITCQASQDINNYLNWYQQKPGRAPELLINDASNLEAGVPSRFSGSGSGTDFTLTISSLQTEDFATYYCQQYGSLPYTFGQGTKLDIR

Each binder was assayed against recombinant SARS-CoV-2 spike protein receptor binding domain (RBD) (SARS-CoV-2, UniProt P0DTC2, biotin (the listed product is biotinylated)) (assay: SPR).

Q: B1 was tested. Which Kd did it give?
A: The Kd was 0.0192 µM.

Q: B2 was tested. Which Kd did it give?
A: Its Kd is 0.0423 µM.

Q: With B3 as the binder, how does the Kd read?
A: The Kd was 0.0262 µM.

Q: B4 was tested. Which Kd did it give?
A: The Kd was 0.0749 µM.
